Legend:
[1] = target: T1, Known PK substrate sequence KKRPQRATSNVFS (myosin light chain kinase substrate)
T1 chain: KKRPQRATSNVFS

[2] = target: T2, Known PK substrate sequence APRTPGGRR (p42/p44 MAP kinase substrate)
T2 chain: APRTPGGRR

[3] = target: T3, Known PK substrate sequence QKRPSQRSK (protein kinase C substrate)
T3 chain: QKRPSQRSK

[4] = target: T4, Known PK substrate sequence KKRFSFKKSFKLSGFSFK (protein kinase C substrate)
T4 chain: KKRFSFKKSFKLSGFSFK

[5] = target: T5, Known PK substrate sequence PLARTLSVAGLPGK (Ca-/calmodulin-dependent PK substrate)
T5 chain: PLARTLSVAGLPGK

[6] = target: T6, Known PK substrate sequence RRKDLHDDEEDEAMSITA (casein kinase I substrate)
T6 chain: RRKDLHDDEEDEAMSITA

[7] = target: T7, Known PK substrate sequence EAIYAAPFAKKK (abl tyrosine kinase substrate)
T7 chain: EAIYAAPFAKKK

[8] = target: T8, Known PK substrate sequence KKALRRQETVDAL (Ca-/calmodulin-dependent PK substrate)
T8 chain: KKALRRQETVDAL

[9] = target: T9, Known PK substrate sequence RKISASEFDRPLR (cGMP-dependent protein kinase substrate)
T9 chain: RKISASEFDRPLR

[10] = target: T10, Known PK substrate sequence LRRASLG (cAMP-dependent protein kinase substrate)
T10 chain: LRRASLG

[11] = target: T11, Known PK substrate sequence PKTPKKAKKL (p34 cdc-kinase substrate)
T11 chain: PKTPKKAKKL

[12] = target: T12, Known PK substrate sequence LSSLRASTSKSGGQK (S6 kinase substrate)
T12 chain: LSSLRASTSKSGGQK

[13] = target: T13, Known PK substrate sequence EAAEAEPAEPSSPAAEAEGA (p42/p44 MAP kinase substrate)
T13 chain: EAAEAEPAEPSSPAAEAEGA

[14] = target: T14, Known PK substrate sequence KKKKEEIYFFF (csk tyrosine kinase substrate)
T14 chain: KKKKEEIYFFF

[15] = target: T15, Known PK substrate sequence Ac-SPGRRRRK (cdc2-kinase substrate)
T15 chain: SPGRRRRK

[16] = target: T16, Known PK substrate sequence KKKLPATGDYMNMSPVGD (insulin receptor tyrosine kinase substrate)
T16 chain: KKKLPATGDYMNMSPVGD

[17] = target: T17, Known PK substrate sequence YIYGSFK (c-src tyrosine kinase substrate)
T17 chain: YIYGSFK

[18] = target: T18, Known PK substrate sequence LMECRNSPVAKT (p42/p44 MAP kinase substrate)
T18 chain: LMECRNSPVAKT

[19] = target: T19, Known PK substrate sequence RRRDDDSDDD (casein kinase II substrate)
T19 chain: RRRDDDSDDD

[20] = target: T20, Known PK substrate sequence SGQLIDSMANSFVGTRS (raf-1 kinase substrate)
T20 chain: SGQLIDSMANSFVGTRS

B1: MLSK-1 (Murine Lymph node Stromal cell Kinase 1) (protein)
chain: MESVALLQRPSQAPSASALASESARPLADGLIKSPKPLMKKQAVKRHHHKHNLRHRYEFLETLGKGTYGKVKKARESSGRLVAIKSIRKDKIKDEQDLLHIRREIEIMSSLNHPHIIAIHEVFENSSKIVIVMEYASRGDLYDYISERPRLSERDARHFFRQIVSALHYCHQNGIVHRDLKLENILLDANGNIKIADFGLSNLYHKGKFLQTFCGSPLYASPEIVNGKPYVGPEVDSWSLGVLLYILVHGTMPFDGQDHKTLVKQISNGAYREPPKPSDACGLIRWLLMVNPTRRATLEDVASHWWVNWGYTTGVGEQEALREGGHPSGDFGRASMADWLRRSSRPLLENGAKVCSFFKQHVPGGGSTVPGLERQHSLKKSRKENDMAQNLQGDPAEDTSSRPGKSSLKLPKGILKKKSSTSSGEVQEDPQELRPVPDTPGQPVPAVSLLPRKGILKKSRQRESGYYSSPEPSESGELLDASDVFVSGDPVEQKSPQASGLLLHRKGILKLNGKFSRTALEGTTPSTFGSLDQLASSHPAARPSRPSGAVSEDSILSSESFDQLDLPERLPETPLRGCVSVDNLRGLEQPPSEGLKRWWQESLGDSCFSLTDCQEVTAAYRQALGICSKLS
Phosphorylation by MLSK-1 (% of max.) [1]: 72 % of max.
Phosphorylation by MLSK-1 (% of max.) [2]: 88.6 % of max.
Phosphorylation by MLSK-1 (% of max.) [3]: 75 % of max.
Phosphorylation by MLSK-1 (% of max.) [4]: 100 % of max.
Phosphorylation by MLSK-1 (% of max.) [5]: 10.3 % of max.
Phosphorylation by MLSK-1 (% of max.) [6]: 14.1 % of max.
Phosphorylation by MLSK-1 (% of max.) [7]: 69.3 % of max.
Phosphorylation by MLSK-1 (% of max.) [8]: 20.9 % of max.
Phosphorylation by MLSK-1 (% of max.) [9]: 62.2 % of max.
Phosphorylation by MLSK-1 (% of max.) [10]: 65.9 % of max.
Phosphorylation by MLSK-1 (% of max.) [11]: 82 % of max.
Phosphorylation by MLSK-1 (% of max.) [12]: 66.6 % of max.
Phosphorylation by MLSK-1 (% of max.) [13]: 0 % of max.
Phosphorylation by MLSK-1 (% of max.) [14]: 82.1 % of max.
Phosphorylation by MLSK-1 (% of max.) [15]: 94.8 % of max.
Phosphorylation by MLSK-1 (% of max.) [16]: 33.7 % of max.
Phosphorylation by MLSK-1 (% of max.) [17]: 66.6 % of max.
Phosphorylation by MLSK-1 (% of max.) [18]: 3.8 % of max.
Phosphorylation by MLSK-1 (% of max.) [19]: 17.6 % of max.
Phosphorylation by MLSK-1 (% of max.) [20]: 43.1 % of max.

Reference: patent US20060024807
